{"source": "patent US20180111972A1", "about": "(Stanford University, published 2018)", "binders": {"B1": {"name": "PVAM-S (PV R32A), soluble, FLAG and hexahistidine tags (designed binder)", "chain": "DYKDDDDKIAEPAMIAECHPIETLVDILQEYPDEIGYIFKPSCVPLMRCGGCCNNRNVQCRPTEESNITMQIMRIKPHRGQHIGEMSFLQHNKCRCETVAAGSTSGSGKSSEGKGEVVKFMDVYQRSYCKTRTEVFEISRRLIDATNANFLVWPPCVEVQRCSGCCNHEGLECVPTQVQLRPVQVRKIEFVRKKPIFKKATVTLEDHLACECRPKKDHHHHHH", "notes": "Secreted from S. cerevisiae YVH10 and treated with Endo Hf"}, "B2": {"name": "PV6 PDGF/VEGF chimera, soluble, N-terminal FLAG and C-terminal hexahistidine tags (designed binder)", "chain": "B1 chain with L28F, G36E, R79Q, R95K, A145R, H168D, F190I, E211K", "notes": "Secreted from S. cerevisiae YVH10 and treated with Endo Hf; also called soluble PV6"}}, "key": {"[1]": {"molecular_target": "T1, human VEGFR on human umbilical vein endothelial cells (HUVECs) (human, UniProt P35968 20-1356)", "T1 construct": "The phosphorylation blots on these cells detect VEGFR2", "T1 sequence (P35968 20-1356 limits assumed)": "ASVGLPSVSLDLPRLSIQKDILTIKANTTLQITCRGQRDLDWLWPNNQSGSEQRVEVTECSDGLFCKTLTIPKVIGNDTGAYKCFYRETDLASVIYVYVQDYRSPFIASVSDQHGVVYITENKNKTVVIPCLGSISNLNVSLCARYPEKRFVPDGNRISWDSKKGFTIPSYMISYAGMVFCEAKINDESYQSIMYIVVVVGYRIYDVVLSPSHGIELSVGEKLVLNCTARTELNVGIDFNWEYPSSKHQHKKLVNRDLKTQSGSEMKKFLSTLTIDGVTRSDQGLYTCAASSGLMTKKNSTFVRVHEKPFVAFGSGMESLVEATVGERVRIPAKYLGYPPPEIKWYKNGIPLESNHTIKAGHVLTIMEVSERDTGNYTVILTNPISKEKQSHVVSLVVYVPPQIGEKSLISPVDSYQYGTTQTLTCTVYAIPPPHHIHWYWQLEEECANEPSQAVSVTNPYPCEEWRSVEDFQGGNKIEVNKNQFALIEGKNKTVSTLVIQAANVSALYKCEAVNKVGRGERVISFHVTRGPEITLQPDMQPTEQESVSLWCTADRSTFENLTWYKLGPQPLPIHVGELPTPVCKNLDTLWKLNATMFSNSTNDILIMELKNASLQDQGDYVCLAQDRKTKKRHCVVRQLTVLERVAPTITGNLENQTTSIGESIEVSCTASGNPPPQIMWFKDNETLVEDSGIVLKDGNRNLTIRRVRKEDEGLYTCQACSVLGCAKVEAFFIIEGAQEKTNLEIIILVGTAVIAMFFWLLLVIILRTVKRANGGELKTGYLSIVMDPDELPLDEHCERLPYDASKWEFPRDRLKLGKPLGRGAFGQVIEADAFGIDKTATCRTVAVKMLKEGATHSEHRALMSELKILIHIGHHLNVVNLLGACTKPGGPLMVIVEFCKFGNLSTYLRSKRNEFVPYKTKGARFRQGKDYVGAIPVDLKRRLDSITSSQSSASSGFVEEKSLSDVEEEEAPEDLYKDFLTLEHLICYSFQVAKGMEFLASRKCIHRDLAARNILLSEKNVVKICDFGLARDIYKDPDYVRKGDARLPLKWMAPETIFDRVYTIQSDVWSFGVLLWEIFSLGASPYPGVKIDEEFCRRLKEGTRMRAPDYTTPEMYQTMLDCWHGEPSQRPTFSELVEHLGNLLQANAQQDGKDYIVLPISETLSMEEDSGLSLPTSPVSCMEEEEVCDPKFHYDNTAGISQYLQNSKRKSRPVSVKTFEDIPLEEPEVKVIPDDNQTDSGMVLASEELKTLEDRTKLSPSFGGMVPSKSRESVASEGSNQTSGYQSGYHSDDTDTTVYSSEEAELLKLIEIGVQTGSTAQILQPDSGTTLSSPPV", "test": "flow cytometry on HUVECs, soluble ligand titrated"}, "[2]": {"molecular_target": "T1, human VEGFR on human umbilical vein …", "test": "flow cytometry on HUVECs, soluble ligand titrated 3 h at 4 C, anti-FLAG-PE", "procedure": "Cells were incubated with various concentrations of hybrid PDGF/VEGF for 3 hours at 4° C. Binding was detected using an R-PE-conjugated anti-FLAG antibody, then analyzed by flow cytometry."}, "[3]": {"molecular_target": "T1, human VEGFR on human umbilical vein …", "test": "cell-based or functional assay"}}, "note": "Where a chain is given by its changes, count along the chain named. Names and notes keep the numbering of the source."}
{"binder": "B1", "values": [{"measurement": "fold improvement over the bivalent scVEGFwt", "setting": "[1]", "value": 7.5, "unit": "fold"}, {"measurement": "Kd", "setting": "[2]", "value": 0.2, "unit": "nM"}]}
{"binder": "B2", "values": [{"measurement": "IC50 of inhibition of HUVEC proliferation induced by 0.5 nM VEGF165, alamarBlue", "setting": "[3]", "value": 110, "unit": "nM"}]}
